According to US6867008 (NEW ENGLAND MEDICAL CENTER HOSPITALS, dated 2005):
Values belong to the binder of their own block, whether it stands above or below them.

Legend:
[1] = biological target: T1, hERα/BD (human estrogen receptor alpha fused to the Gal4 DNA binding domain) (human, UniProt P04386 1-147; P03372 1-595); assay: yeast two-hybrid
T1 construct: also called ERα/GalBD; hERα/GalBD
From the text: Screening of the ovine library yielded clone EC1. […] Yeast strain Y190 was transformed with mERβ/BD in combination with EC1/AD and GalAD respectively and plated on Sc-His (synthetic complete medium, minus histidine) and YPD (yeast extract, peptone, dextrose) plates (FIG. 1A). […] Yeast strain Y190 was also transformed with human ER alpha (hERα)/BD in combination with EC1/AD, hERα/BD and Trip 1/AD and plated on Sc-His and YPD plates. Positive interaction of hERα/BD with […] and Trip 1/GalAD was seen only in the presence of estrogen. Colony lift β-Galactosidase assays were also performed with yeasts from the YPD plate in both FIG. 1A and 1B. TIF2 and TRIP1 homologs were found previously by screening a human heart library with mERβ as bait. […] This implies a new function for ER beta that may be separated from its estrogen binding function.

mERβ1-622/GalBD = biological target: T2, mERβ1-622/GalBD (mouse, UniProt P04386 1-147; O08537 46-252); assay: yeast two-hybrid, HIS and β-galactosidase reporters
T2 construct: about the first 207 codons of the short variant ORF (my reading)

mERβ1-516/GalBD = biological target: T3, mERβ1-516/GalBD (mouse, UniProt P04386 1-147; O08537 46-217); assay: as above
T3 construct: Expression in Y190 confirmed by Western blot

[2] = biological target: T4, [35S]hERα (in vitro translated human estrogen receptor alpha) (human, UniProt P03372 1-595, [35S]methionine labelled); assay: GST pull-down, SDS-PAGE and autoradiography
T4 construct: also called [^35S] labeled hERα; ER alpha
T4 sequence (looked up): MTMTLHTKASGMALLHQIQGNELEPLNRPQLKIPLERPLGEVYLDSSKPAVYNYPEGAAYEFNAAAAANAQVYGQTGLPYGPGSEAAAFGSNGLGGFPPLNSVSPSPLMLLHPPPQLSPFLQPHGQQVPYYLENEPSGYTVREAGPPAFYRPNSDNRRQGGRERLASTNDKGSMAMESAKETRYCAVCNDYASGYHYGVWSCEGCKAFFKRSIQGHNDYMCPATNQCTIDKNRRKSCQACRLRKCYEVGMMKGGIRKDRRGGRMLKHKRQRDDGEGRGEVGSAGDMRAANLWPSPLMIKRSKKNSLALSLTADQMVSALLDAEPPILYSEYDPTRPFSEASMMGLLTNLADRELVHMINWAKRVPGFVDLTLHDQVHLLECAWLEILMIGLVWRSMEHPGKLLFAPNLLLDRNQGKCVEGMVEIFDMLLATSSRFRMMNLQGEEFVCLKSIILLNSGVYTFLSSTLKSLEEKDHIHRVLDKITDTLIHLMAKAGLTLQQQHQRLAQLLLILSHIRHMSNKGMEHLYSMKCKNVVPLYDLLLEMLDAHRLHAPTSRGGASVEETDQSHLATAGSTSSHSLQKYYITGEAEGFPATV
Method: Recombinant proteins were incubated at 4° in suspension buffer (20 mM Tris pH7.4, 137 mM NaCl, 2 mM EDTA pH7.4, 1% TritonX-100, 10% Glycerol, 25 mM β-glycerolphosphate, 1 mM Na vanadate, […], 1 mM PMSF) with either one of the GST fusion proteins immobilized on glutathione-Sepharose beads for 1 hour. Beads were then washed three times in suspension buffer, boiled 5 minutes in SDS sample buffer, and associated proteins resolved by SDS-PAGE. Labeled protein bands in gels were then visualized by autoradiography.
[^35S] labeled mERβ was incubated with GST-beads (Lane 2) and GST-EC1 beads (Lane 3) followed by SDS-PAGE and autoradiography. […] In the complementary experiment (FIG. 4B), [^35S]-labeled hsMAD2 was incubated with GST beads (Lane 2) and GST-mERP beads (Lane 3) followed by SDS-PAGE and autoradiography. […] MAD2 input (FIG. 4B). GST-fusion protein interaction studies were also done with hERα. [^35S] labeled hERα was incubated with GST-mERβ (Lane 2, positive control), GST-beads (Lane 3) and GST-EC1 beads followed by SDS-PAGE and autoradiography.

binding result [1]: no binding
binding result (mERβ1-622/GalBD): binds
binding result (mERβ1-516/GalBD): no binding
B1: EC1/AD (ovine clone EC1, MAD2 homolog, fused to the Gal4 activating domain, vector pGAD10) (other, not shown: large carriers)
chain: REQGITLRGSAEIVAEFFSFGINSILYQRGIYPSETFTRVQKYGLTLLVTTDPELIKYLNNVVDQLKEWLYKCSVQKLVVVISNIESGEVLERWQFDIECDKTAKDDSAPREKSQKAIQDEIRSVIRQITATVTFLPLLEVSCSFDLLIYTDKDLVVPEKWEESGPQFITNSEEVRLRSFTTTIHKVNSMVAYKIPVHD
notes: Library clone from ovine pulmonary artery endothelial cells; also called EC1/GalAD

binding result [2]: no binding
B2: GST-EC1 (other)
chain: B1 chain
notes: Immobilised on glutathione-Sepharose beads; also called GST-MAD2 clone; GST MAD2; not shown: glutathione S-transferase of vector pGEX-4T-1
